Experiment: yeast display, Sf9 membrane polyspecificity reagent, FACS + sequencing; frameworks hold sequencing errors
Method in brief: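 Genes from sorted yeast were amplified by colony PCR, read by MiSeq 2 × 250 sequencing and filtered on CDR length. These cells carried a synthetic nanobody library in Saccharomyces cerevisiae BJ5465 and were sorted by FACS into low and high (top ~1%) gates on anti-HA and streptavidin fluorescence. Polyreactivity is labelled according to the gate of origin.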

Row | Sequence | polyreactivity (PSR sort gate)
1 | QVQLVESGGGLVQAGGSLRLSCAASGFTFKTNAMGWYRQAPGKERELVAAITSGGSTNYADSVKGRFTISRDNAKNTVYLQMNSLKPVDPAVYYCAADYGVWSEYAGWHAAFDYWGQGTQVTVSS | low polyreactivity
2 | QVQLVESGGGLVQAGGSLRLSCAASGFTFKWSAMGWYRPAPGKETELVATITIGGRTNYADSVKGRFTISRDNAKYTVYLQMNSLKPEDTAVYYGATYFVGFRLSDYDYWGQGTQVTVSS | low polyreactivity
3 | QVQLVESGGGLVQAGGSLRLSCAASGFTFKYYAMGWYRQAPGKERELVATITRSGGNTYYADSVKGRFTISRDNAKNTVYLQMNSLKPEDTAVYYCNKGVRRSVYSRYDYWGQGTQVTVSS | high polyreactivity
4 | QVQLVESGGGLVQAGGSLRLSCAASGFTFLFNAMGWYRQAPGKERELVADITWSGGSTYYADSVKGRFTISRDNAKNTVYLQMNSLKPEDTAVYYCAASDDWSTPIYYYSVFDYDYWGQGTQVTVSS | high polyreactivity
5 | QVQLVESGGGLVQAGGSLRLSCAASGFTFLGYAMGWYRKAPGKERELDASITYGGDSTYYADSVKARFTISRDNAKNTFYLEMISLKPEDTAVYYCNARPSYWWGGRLYGYWGQGSQVTVSS | high polyreactivity
6 | QVQLVESGGGLVQAGGSLRLSCAASGFTFLKYAMGWYRQAPGKERELVARITSGGRTYYADSVKGRFTISRDNAKNTVYLQMNSLKPEDTAVYYCNAVKSYASLYAGFYYWGQGTQVTVSS | high polyreactivity
7 | QVQLVESGGGLVQAGGSLRLSCAASGFTFLVYAMGWYRQAPGKERELVAAISRRGGSTYYADSVKGRFTISRDNAKNTVYLQINSLKPEDTAVYYCNVDRYYRIGYYRLTMGYWGQGTQVTVSS | high polyreactivity
8 | QVQLVESGGGLVQAGGSLRLSCAASGFTFLVYAMGWYRQAPGKERELVAAITWSGDSTYYADSVKGRFTISRDNAKNTVYLQMNSLKPEDTAVYYCAAAYRYGTLYYYWGQGTQVTGSS | low polyreactivity
9 | QVQLVESGGGLVQAGGSLRLSCAASGFTFLYNVMGWYRQAPGKERELVAAISQSGTDTYYADSVKGRFTISRDNAKNTVYLQMNSLKPEDTAVYYCATEYYSQPRDDSWGQGTQVTVSS | low polyreactivity
10 | QVQLVESGGGLVQAGGSLRLSCAASGFTFLYYDMGWYRQAPGKERELVAAITSSGTSTYYADSVKGRFTISRDNAKNSVYLQMNSLKPEDTAVYYCAVMYTYAGRHRYGYWGQGTQVTVSS | high polyreactivity
11 | QVQLVESGGGLVQAGGSLRLSCAASGFTFNANARGWYRQAPGKEREVVAVITRSGGRTYYADSVKGRFTISRDNAKNTVYFQMNSLNPEDTAVYYCAKEGPSRVYQGTDCASDSWGHGTQVTVSS | high polyreactivity
12 | QVQLVESGGGLVQAGGSLRLSCAASGFTFNCNAMGWYRQAPGKERELVAAIRSSGGSTYYADSVKGRFTISRDNAKYTVYLQMNSLKPEDTAVYYCAARRSNLYYGGTRYWYYYWGQGTQVTVSS | high polyreactivity
13 | QVQLVESGGGLVQAGGSLRLSCAASGFTFNDYAMGWYRQAPGKERELVAAIDWSGGRTYYADSVKGRFTISRDNAKNTVYLQMNSLKPDDTAVYYCAAVLYSRLYWYRLDYWGQGTQVTVSS | low polyreactivity
14 | QVQLVESGGGLVQAGGSLRLSCAASGFTFNGYAMGWYRQAPGKERELVAAINWSGGRTYYADSVKGRFTISRDNAKNTVYLQMNSLKPEDTAVYYCNAVLYVTNSFRFDYWGQGTQVTVSS | high polyreactivity
15 | QVQLVESGGGLVQAGGSLRLSCAASGFTFNNYAMGWYRQAPGKERELVAAISSGAGTYYADSVKGRFTISRDNAKNTVYLQMNSLNPVDTSVDYCNASLKYQGRTRITYRDDYWGQGTQVTVSS | low polyreactivity
16 | QVQLVESGGGLVQAGGSLRLSCAASGFTFNRNAMGWYRQAPGKERELVAAITKRGGSTFYADSVKGRFTISRDNAKNTVYLQMNSLKPEDTAVYYCAASVATYFPRHYDYWGQGTQVTVSS | high polyreactivity
17 | QVQLVESGGGLVQAGGSLRLSCAASGFTFNRYAMGWYRQAPGKEREFVAAITRRGGNTYYADSVKGRFTISRDNAKNTVYLQMNSLKPEDSAVYYCNAVFGPSSYGAKEYDYWGQGTQVTVSS | high polyreactivity
18 | QVQLVESGGGLVQAGGSLRLSCAASGFTFNRYAMGWYRQAPGKERELVARITRGGSTKYADSVKGRFTISRDNAKNTVYLEMNSLKPEDTAVYYCAADYGGFLVYDYWGQGTQVTVSS | high polyreactivity
19 | QVQLVESGGGLVQAGGSLRLSCAASGFTFNSYAMGWYRQAPGKERELVAAISWSGGSTYYADSVKGRFTISRDNAKNTVYLQMNSLKPEDTAVYYCNRDGLSRPYYYWGQGTQVTLSS | high polyreactivity
20 | QVQLVESGGGLVQAGGSLRLSCAASGFTFNSYVMGWSRQAPGKERELVAAITRSGDRTYYADSVKGRFTISRDNAKNTVYLQMNSLKPEDTAVYYCAATWSKNYYGWYYYWGQGTQVTVSS | high polyreactivity

Row | Sequence | polyreactivity (PSR sort gate)
21 | QVQLVESGGGLVQAGGSLRLSCAASGFTFNYAMGWYTQAPGKERELVAAISSAGTTYYADSVKGRFTISRDNAKNTVYLQMNSLKPEDTAVYYCAALARPKQDRYRYYYWGQGTQVTVSS | high polyreactivity
22 | QVQLVESGGGLVQAGGSLRLSCAASGFTFNYNAMGWYRQAPRKERELVAAISRSGGRTYYADSVKGRFTISRDKAKNTVYLQMNSLKPADTAVYYCAADSRTNGYDYWGQGTQVTVSS | high polyreactivity
23 | QVQLVESGGGLVQAGGSLRLSCAASGFTFNYSAKGWYRQAPGKEREFVAAISRGGGRTYYADSVKGRFTISRDNANNTVYLQMNSLKPEATAVYSCAAQSVPYAYPLASYDYWGQGTQVTVSS | high polyreactivity
24 | QVQLVESGGGLVQAGGSLRLSCAASGFTFNYYAMGWSRQAPGKERELVAAITWDGGTTYYADSVKGRFTISRDNAKNTVYLQMNSLKPEDSAVYYCAADYAWVSIYDNVPSAPGYDYWGQGTQVTVSS | low polyreactivity
25 | QVQLVESGGGLVQAGGSLRLSCAASGFTFNYYAMGWYRQAPGKERELVAAISRSGGSTSYADSVKGRFTISRDNAKNTVYLQMNSLKPEDTAVYYCNAVRAIYRYDYWGQGTQVTVSS | high polyreactivity
26 | QVQLVESGGGLVQAGGSLRLSCAASGFTFPDYAMGWYRQAPAKERELVAVITSGGSTYYADSVKGRFTISRDNAKNTVYLQMNSLKPEDTAVYYCATDFWDDDVEQRYDYWGQGTQVTVSS | low polyreactivity
27 | QVQLVESGGGLVQAGGSLRLSCAASGFTFPDYAMGWYRQAPGKERELVAGISSTGDSTYYADSVKGRITISRDNAKNTVYLQMNSLKPEDTAVYYCNAAQERPIIILFSKYDYCGQGTQVTVSS | low polyreactivity
28 | QVQLVESGGGLVQAGGSLRLSCAASGFTFPFYAMGWYRPAHRKERELVAAITASGGSTYYADSVKGRFTISRDNAKYTVYLQMNSLKPEDTAVYYCATSIYRGYYYWGQGTQVTVSS | high polyreactivity
29 | QVQLVESGGGLVQAGGSLRLSCAASGFTFPGYTMGRYRQAPGKERELVAAITWSGGRTYYADSVKGRFTITRDNAKNTVYLQMNSLKPEDTEVYYCAANFGAFYGNRDYWGQGTQVTVSS | high polyreactivity
30 | QVQLVESGGGLVQAGGSLRLSCAASGFTFPKYAMGWYRQSPGKERELVAGITNGGSTFYADSVKGRFTISRDNAKNTVYLQMNSLKPEDPAVYYCAASGRLSLGGRFYDLGLSYDYWGQGTQVTVSS | low polyreactivity
31 | QVQLVESGGGLVQAGGSLRLSCAASGFTFPLYAMGWYRQAPGKERELVAAIRSSGGSTYYADSVKGRFTISRDNAKNTVYLQMNSLKPEDTAVYYCAKVRYTRRLDTYYYWGQGTQVTVSS | high polyreactivity
32 | QVQLVESGGGLVQAGGSLRLSCAASGFTFPNYAMGWSRQAPGKERELVAAITSGGGRTNYSDSVKGRFTISRDTAKNTVYLQMNSLKPEDTAVYYCAAEYRYDYRVYSHLHVWRYDYWGQGTQVTVSS | low polyreactivity
33 | QVQLVESGGGLVQAGGSLRLSCAASGFTFPNYDMGWYRQAPGKERELVAAITSGGGRTNYADSVKGRFTISRDNAKNTVYFQMNSLKPEDTSVYFCAKTRVRGSEFGYWGQGTQLTVSS | low polyreactivity
34 | QVQLVESGGGLVQAGGSLRLSCAASGFTFPPYAMGWYRQAPGKERELVAAITSSGGRTYYADSVKGRFTISRDNAKNTVYLQMNSLKPEDTAVYYCAAYGRFARMNYWGQGTQVTVSS | high polyreactivity
35 | QVQLVESGGGLVQAGGSLRLSCAASGFTFPRNAMGWYRQAPGKERELVAAISRGGGGTYYADSVKGRFTISRDNAKNTVYLQMNSLKPEDTAVYYFNAVYPGGSYKYDYWVQGTQVTVSS | high polyreactivity
36 | QVQLVESGGGLVQAGGSLRLSCAASGFTFPRYAMGWYRQAPGKERELVAAIRRRGGSTYYADSVKGRFTISRDNAKNTVYLQMNSLKPEDTAVYYCATYNGVKGEASFDYWGQGTQVTVSS | high polyreactivity
37 | QVQLVESGGGLVQAGGSLRLSCAASGFTFPRYAMGWYRQAPGKERELVAAITSGDRTYYADSVKGRFTISRDNAKNTVYLQMNSLKPEDTAVYYCARVPDTEGEYWGQGTQVTVSS | high polyreactivity
38 | QVQLVESGGGLVQAGGSLRLSCAASGFTFPSYAMGWYRQAPGKERELVAVISWGGTSTYYADSVKGRFTISRDNAKNTVYLQMNSLKPEDTAVYYCATTRRVPGEYWGQGTQVTVSS | high polyreactivity
39 | QVQLVESGGGLVQAGGSLRLSCAASGFTFPSYAMGWYRQAPGNERELVAVLSRRGGSTYYADSVKGRFTISRDNAKNTVYLQMNSLKPEDTAVYYCAADFRYYLTTRFNYWGQGTQVTVSS | high polyreactivity
40 | QVQLVESGGGLVQAGGSLRLSCAASGFTFPVYGMGWYRQAPGKERELVAAISSRGGNTYYADSVKGRFTISRDNAKNTVYLQMNSLKPEDTAVYYCAAGGITYTGDDYWGQGTQVTVSS | high polyreactivity
